Assay results as given in patent publication US20200277377A1 (WUXI BIOLOGICS SHANGHAI, published 2020).

Tests used:
Murine CTLA-4.ECD-6×His = target: T1, Murine CTLA-4.ECD-6×His (mouse, UniProt P09793 36-161); assay: SPR, antibody captured on anti-human Fc, CTLA-4.ECD-6×His as analyte, 1:1 fit
T1 construct: extracellular domain; Bought; also called mouse CTLA-4.ECD-6×His; mouse CTLA-4 ECD
Method: Biacore T200, Series S Sensor Chip CMS, Amine Coupling Kit, and 10×HBS-EP were purchased from GE Healthcare. […] In immobilization step, the activation buffer was prepared by mixing 400 mM EDC and 100 mM NHS immediately prior to injection. The CM5 sensor chip was activated for 420 s with the activation buffer. 30 μg/mL of goat anti-human IgG Fcγ antibody in 10 mM NaAc (pH 4.5) was then injected to Fc1-Fc4 channels for 200 s at a flow rate of 5 μL/min. The chip was deactivated by 1 M ethanolamine-HCl (GE). Then the antibodies were captured on the chip. Briefly, 4 μg/mL antibodies in running buffer (HBS-EP+) was injected individually to Fc3 channel for 30 s at a flow rate of 10 μL/min. […] Regeneration buffer (10 mM Glycine pH 1.5) was injected at 10 μL/min for 30 s following every dissociation phase.
The binding kinetics of these antibodies were measured using SPR. The antibodies were captured on immobilized anti-human Fc and CTLA-4-ECD at different concentration was injected orderly. The sensorgrams for reference channel and buffer channel were subtracted from the test sensorgrams. The data was used for 1:1 binding analysis on human, monkey and mouse CTLA-4.ECD-6×His.

[1] = target: T2, hCTLA4_ECD.His point mutant Y139 to alanine (human, UniProt P16410 36-161); assay: capture ELISA, alanine scan, vs silent alanine substitutions
T2 construct: extracellular domain; alanine-scan mutein, HEK293F supernatant
T2 sequence (looked up): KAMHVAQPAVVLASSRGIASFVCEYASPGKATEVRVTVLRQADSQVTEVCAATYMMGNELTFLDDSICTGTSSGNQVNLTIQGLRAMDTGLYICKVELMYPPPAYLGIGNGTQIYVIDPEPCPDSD
Outline: (§1)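 Secreted His-tagged CTLA4 point muteins in quantified supernatant were captured and probed with HRP anti-His antibody and TMB. Absorbance normalised to the mean of control mutants; epitope residues were assigned with a binding fold-change cutoff of <0.55.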

[2] = target: T3, hCTLA4_ECD.His point mutant Y127 to alanine (human, UniProt P16410 36-161); assay: as above
T3 construct: extracellular domain; alanine-scan mutein, HEK293F supernatant
T3 sequence (looked up): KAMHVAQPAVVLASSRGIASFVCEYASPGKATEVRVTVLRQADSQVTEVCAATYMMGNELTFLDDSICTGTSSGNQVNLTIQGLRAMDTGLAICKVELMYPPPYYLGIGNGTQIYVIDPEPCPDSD
Outline: as §1

[3] = target: T4, hCTLA4_ECD.His point mutant C103 to alanine (human, UniProt P16410 36-161); assay: as above
T4 construct: extracellular domain; alanine-scan mutein, HEK293F supernatant
T4 sequence (looked up): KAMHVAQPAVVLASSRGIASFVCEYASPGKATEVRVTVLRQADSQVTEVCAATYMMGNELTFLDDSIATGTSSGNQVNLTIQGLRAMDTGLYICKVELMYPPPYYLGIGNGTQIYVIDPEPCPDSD
Outline: as §1

[4] = target: T5, hCTLA4_ECD.His point mutant Q76 to alanine (human, UniProt P16410 36-161); assay: as above
T5 construct: extracellular domain; alanine-scan mutein, HEK293F supernatant
T5 sequence (looked up): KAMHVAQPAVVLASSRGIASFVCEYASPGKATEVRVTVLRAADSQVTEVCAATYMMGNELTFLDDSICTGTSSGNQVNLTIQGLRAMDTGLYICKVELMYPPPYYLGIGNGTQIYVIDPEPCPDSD
Outline: as §1

[5] = target: T6, hCTLA4_ECD.His point mutant G142 to alanine (human, UniProt P16410 36-161); assay: as above
T6 construct: extracellular domain; alanine-scan mutein, HEK293F supernatant
T6 sequence (looked up): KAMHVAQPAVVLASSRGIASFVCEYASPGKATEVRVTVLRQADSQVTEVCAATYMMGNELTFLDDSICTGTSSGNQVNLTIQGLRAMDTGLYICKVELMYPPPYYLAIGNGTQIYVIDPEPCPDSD
Outline: as §1

hCTLA4_ECD.His (N113 Q) = target: T7, hCTLA4_ECD.His (N113 Q) (human, UniProt P16410 36-161); assay: capture ELISA: W3162-1.154.8-z35 captured on anti-human Fc, hCTLA4-His mutein supernatant titrated (ng/ml), HRP-anti-His [C]
T7 construct: extracellular domain; Glycosylation-site mutein, expressed in HEK293F cells; also called CTLA-4 with N113Q
T7 sequence (looked up): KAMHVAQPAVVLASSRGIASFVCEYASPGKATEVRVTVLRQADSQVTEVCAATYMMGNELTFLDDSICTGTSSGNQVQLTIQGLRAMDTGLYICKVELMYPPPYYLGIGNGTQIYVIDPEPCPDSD

[6] = target: T8, hCTLA4_ECD.His point mutant G64 to alanine (human, UniProt P16410 36-161); assay: capture ELISA, alanine scan, vs silent alanine substitutions
T8 construct: extracellular domain; alanine-scan mutein, HEK293F supernatant
T8 sequence (looked up): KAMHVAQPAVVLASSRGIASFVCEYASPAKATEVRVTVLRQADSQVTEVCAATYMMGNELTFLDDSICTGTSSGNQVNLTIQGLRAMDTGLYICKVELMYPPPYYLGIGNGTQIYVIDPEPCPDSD
Outline: as §1

human CTLA-4.ECD-6×His = target: T9, human CTLA-4.ECD-6×His (human, UniProt P16410 36-161); assay: capture ELISA: W3162-1.154.8-z35 captured on anti-human Fc, hCTLA4-His supernatant titrated (ng/ml), HRP-anti-His [C]
T9 construct: extracellular domain; also called WBP316.hCTLA-4.ECD-6×His; hCTLA4-His (WT)
T9 sequence: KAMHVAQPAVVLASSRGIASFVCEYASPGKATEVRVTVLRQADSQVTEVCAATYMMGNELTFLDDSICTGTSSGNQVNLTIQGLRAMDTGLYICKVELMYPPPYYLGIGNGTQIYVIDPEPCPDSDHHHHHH

| Binder | Kd (Murine CTLA-4.ECD-6×His) | koff (Murine CTLA-4.ECD-6×His) | kon (Murine CTLA-4.ECD-6×His) | Fold change [1] | Fold change [2] | Fold change [3] | Fold change [4] | Fold change [5] | EC50 (read off the curve) (hCTLA4_ECD.His (N113 Q)) | Fold change [6] | EC50 (read off the curve) (human CTLA-4.ECD-6×His) |
| --- | --- | --- | --- | --- | --- | --- | --- | --- | --- | --- | --- |
| W3162-1.146.19-z12-uAb.IgG1K (antibody, V domains shown, Humanized; label says IgG1K) VH: QVQLQESGPGLVKPSETLSLTCSVTYHTITSGYDWTWIRKPPGKGMEWIGYISYSGNTNYNPSLKSRVTISRDTSKNQFFLKLSSVTAADTAVYYCASMMVPHYYVMDAWGQGTLVTVSS VL: DIVMTQTPLSLSVTPGQPASISCRSSQSLLNSDGNTYLYWYLQKPGQSPQLLIYLVSKLGSGVPNRFSGSGSGTDFTLKISRVEAEDVGVYYCVQGTHDPWTFGGGTKVEIK | 1.39 nM | 0.000239 s⁻¹ | 172000 M⁻¹ s⁻¹ | 0.431 fold | 0.529 fold | 0.544 fold | 0.2 fold | 0.543 fold |  |  |  |
| W3162_1.154.8-z35-uAb.IgG1K (antibody, V domains shown, Humanized; label says IgG1K) VH: QVQLVQSGAEVKKPGSSVKVSCKASGYTFTNYFMNWVRQAPGQGLEWMGRVDPEQGRADYAEKFKKRVTITADKSTSTAYMELSSLRSEDTAVYYCARRAMDNYGFAYWGQGTLVTVSS VL: EIVLTQSPDFQSVTPKEKVTITCSANSALSYMYWYQQKPDQSPKLWVHGTSNLASGVPSRFSGSGSGTDFTLTINSLEAEDAATYYCHHWSNTQWTFGGGTKVEIK |  |  |  |  |  |  |  |  | ~3 ng/mL | 0.543 fold | ~3 ng/mL |
